Measured values taken from the RNAGym collection of RNA variant scans (doi:10.1073/pnas.2313332121).

B1: TPR t1 (parent)
chain: GACCAAUCUGCCCUCAGAGCUCGAGAACAUCUUCGGAUGCAGAGGAGGCAGGCUUCGGUGGCGCGAUAGCGCCAACGUCCUCAACCUCCAAUGCAUCCCACCACAUGAUGAUGCCUGAAGAGCCUUGGUUUUUUG

Variants of: B1
Assay: polymerase ribozyme fitness, log enrichment relative to wild type (log ratio); higher = more active; in vitro selection for triplet polymerase activity
In short: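 Frozen incubation at −7 °C formed the core of a single, triplicate in vitro selection round applied to PCR-built, transcribed mutant libraries of each subunit of a heterodimeric triplet polymerase ribozyme. Extended constructs were gel-excised, captured with streptavidin beads and amplified by RT-PCR, and input and output libraries were Illumina-sequenced with a filter of ≥10 input reads and ≥1 read per output. Fitness is the logarithm of genotype enrichment relative to wild-type enrichment, with inverse-variance-weighted replicate averaging, and the logarithm is base 2.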

Variant	polymerase ribozyme fitness (log ratio)
G47A A50U G60C G77A	-5
G45U C114U	-3.17
G45U G48A G69U	-0.269
G47A C73A U126A	-2.35
G45U C56A G128C	-5.66
A46G U59A	-0.58
A46U G48A	-2.28
G45C C115A U130C	-2.49
A46U C115U	-2.18
G45A U55A	0.00657
A46U C70A C85U	-3.76
G47A G61A C85A C98A	-6.7
A46G A74C U133A	-0.745
G45A G60C	-0.0735
G47A C72A C86A U96G G117U	-4.69
G47A C123U	-0.261
G47A C123A	-0.394
G45C C86G C102U G120U	-7.48
G45C A84G C97A	-6.72
G47A C85G G113A U132A	-2.45
G45C G51A G63A U78A C123G	-4.51
G44U G71A U130A	-2.12
G45U G47U G60A C98G	-7.59
A46U G77C	-1.54

Variant	polymerase ribozyme fitness (log ratio)
A46U U54G C72A C82A G110U	-4.48
G45A A50C G63A C82G G117C	-6.01
A46G C73U C88A U130A	-3.03
G45U C64U U81A	-2.88
G45U A50U C114A G135A	-5.32
A46U U131C	-1.72
G45A C56A	-0.425
G44U C64U C82U U106G G120A	-1.25
A46G G60U	-0.448
G45U G48A	-1.51
G44U G60U C94U	-0.792
G45A C73U C97U A103U G120C	-5.59
A46U G47A G127C	-3.12
A46U G63C U112C G117C A121U	-3.75
G47A G60A C85G C123U	-3.19
G45A C62A	-1.81
G45A C62U	-0.924
G44U C72U U96A U106G G117U A119U	-6.08
G45A G71U C115G	-2.11
A46U G48A C79G C82U G120A C123A	-3.09
A46U G135U	-1.71
A46U G135C	-1.33
G44U U59C G110A G127A U132A	-4.19
G44U U96C G120A G122A U129G	-2.51

Variant	polymerase ribozyme fitness (log ratio)
G45U U112A	0.359
A46C U87A C123U U132A	1.86
A46U G69U C115A	-0.295
G45A G61A A74U	-1.29
G47A C102G	-5.8
G47A C102A	-2.65
A46G C53A G135U	-1.55
A46G G47C U96A	-3.35
G45C G69C U133A	-2.27
G45A C49A G110U	-2.18
G45U C53A C72U C89G	-1.72
A46G G63U A121U U126A	0.154
G45U A50U A84U G117C	-7.49
A46U G71U	-1.16
G47A C73U G117U G135U	-5.34
G44U G77C A90U	-1.31
G45U C53A G61C	-5.95
G45A C99A	-6.7
G45U C123U	-0.952
A46G G69U	0.473
A46U G52U G71U C123A	-2.41
G45A C88A	-0.795
G45U A50G	-1.25
G44U C56A	-1.54

Variant	polymerase ribozyme fitness (log ratio)
G45U C86U U87A C124U U130C	-1.19
G44U G77C	-2.05
G45A C72U A74U	-1.2
G45U G93U A100C C104A	-6.03
G45U G77U G93U G120U	-3.3
G45U G69A	-4.29
G45A A119G	0.105
A46U C49U	-1.49
G45A C49A C94U G110A C124G	-1.89
A46U A91G C123G	-1.65
G45U C94U C102U	-3.33
A46C C49U A121U	0.936
G45C G51U G57U C99A G117C	-7.29
A46C A100U U131G	-1.22
A46U A90C U133A	-1.74
G47A G51C G77C C80U U87C C124G U131G	-1.89
A46G A103U U125A	-5.23
G45C C49A C76U C102A	-3.88
G45A A111G C114A	-5.79
A46C G47A A50G C97A A121G C124G	-5.64
A46C C102A G120U C123A	-2.45
G47A A103C G122A	-6.8
A46G A90G	0.482
G47A G61A U116A U129A	-4.01

Variant	polymerase ribozyme fitness (log ratio)
G45U A91C	-2.07
A46G A50G U87C	-0.00584
G45A C73U C88A U112C G122U	0.105
A46U C49U C72A A121C	0.996
G44U C70A	-2.87
G44U C56A G57A C104U U106G	-2.38
G44U C53A G63A G113A	-2.93
A46U G71C U78A C86A	-1.63
G45A G69A	-3.01
G44U U55A	-0.917
G45C G48U G52U C76U	-4.18
G45U G63U G113A	-3.01
G45U C72U U87A	-1.19
G45A A50U C124U U125G	-0.0022
G45U C56A C73G	-2.79
A46C G47A C53A G60A C73G	-1.61
G45A C115A	-1.15
G45A C72U G110C	-4.39
G45A U92A	-3.38
A46C C53U U54G G71U G120U	-0.575
A46G C53A	-0.35
A46U G69A	-3.54
A46U G69U	-0.372
G44U G60A	-0.946

Variant	polymerase ribozyme fitness (log ratio)
G45A G107A A121C	-6.43
A46U C76G	-1.01
A46C G57A C62G A121G	-1.34
A46U C102U	-4.01
G47A C70U	-1.86
G47A A50U	-1.57
G45A C53A C86A U133A	-1.69
G45A A84C G120C G135A	0.21
G44U C89G	-0.509
A46U U78C G113A	-2.45
G45U C72A C88A G93A G107U A111C	-5.12
G45C C49U C97U A100U A121C U133C	-0.146
G45A C62A U112G C115G	-3.1
A46U G48U C76A U78C C82U	-5.9
G45A C85G	-3.89
G45A C49A C72G G128A	-3.14
A46G A105C	-1.62
G45A G47U A66U C73A C82U	-3.27
G44U C64G	-7.29
A46G G57A C73U A83G U112C	-0.119
A46U C53U A84C C88U	-1.14
A46G A66U C73A C82G	-2.3
A46C G48A	-1.9
A46C C53U C56A U112A	0.259

Variant	polymerase ribozyme fitness (log ratio)
G45U G60U	-0.287
A46G G47U G120U U132A	-1.09
G44U G45C U78C	-3.51
A46C G48A C101U G110C	-6.49
G45C G47U A50G G57U	-3.62
G45C G61C U131G	-1.96
A46U C114U	-2.76
G45U C73U G110A G122A G128C	-6.61
A46U G63C	-1.29
G45A C79G G107A	-7.38
A46U G117A	-2.21
G44U C70U U96A C104A	-4.6
G44U A108G	-2.57
A46C C62U C86U C97U A111U C124U	-5.27
A46U C82U	-1.14
G45A C56G U78A G122A U129G	-1.63
G44U C102G	-8.01
G44U G135U	-2.86
G45U C72U G120A	-0.418
A46G A50G	0.425
G44U C72U C115U U129G	-4.96
A46U C53U G69C U87C	-2.13
G45C C62U	-1.63
